T1: BoMo R2 RT (Bombyx mori)
T1 chain: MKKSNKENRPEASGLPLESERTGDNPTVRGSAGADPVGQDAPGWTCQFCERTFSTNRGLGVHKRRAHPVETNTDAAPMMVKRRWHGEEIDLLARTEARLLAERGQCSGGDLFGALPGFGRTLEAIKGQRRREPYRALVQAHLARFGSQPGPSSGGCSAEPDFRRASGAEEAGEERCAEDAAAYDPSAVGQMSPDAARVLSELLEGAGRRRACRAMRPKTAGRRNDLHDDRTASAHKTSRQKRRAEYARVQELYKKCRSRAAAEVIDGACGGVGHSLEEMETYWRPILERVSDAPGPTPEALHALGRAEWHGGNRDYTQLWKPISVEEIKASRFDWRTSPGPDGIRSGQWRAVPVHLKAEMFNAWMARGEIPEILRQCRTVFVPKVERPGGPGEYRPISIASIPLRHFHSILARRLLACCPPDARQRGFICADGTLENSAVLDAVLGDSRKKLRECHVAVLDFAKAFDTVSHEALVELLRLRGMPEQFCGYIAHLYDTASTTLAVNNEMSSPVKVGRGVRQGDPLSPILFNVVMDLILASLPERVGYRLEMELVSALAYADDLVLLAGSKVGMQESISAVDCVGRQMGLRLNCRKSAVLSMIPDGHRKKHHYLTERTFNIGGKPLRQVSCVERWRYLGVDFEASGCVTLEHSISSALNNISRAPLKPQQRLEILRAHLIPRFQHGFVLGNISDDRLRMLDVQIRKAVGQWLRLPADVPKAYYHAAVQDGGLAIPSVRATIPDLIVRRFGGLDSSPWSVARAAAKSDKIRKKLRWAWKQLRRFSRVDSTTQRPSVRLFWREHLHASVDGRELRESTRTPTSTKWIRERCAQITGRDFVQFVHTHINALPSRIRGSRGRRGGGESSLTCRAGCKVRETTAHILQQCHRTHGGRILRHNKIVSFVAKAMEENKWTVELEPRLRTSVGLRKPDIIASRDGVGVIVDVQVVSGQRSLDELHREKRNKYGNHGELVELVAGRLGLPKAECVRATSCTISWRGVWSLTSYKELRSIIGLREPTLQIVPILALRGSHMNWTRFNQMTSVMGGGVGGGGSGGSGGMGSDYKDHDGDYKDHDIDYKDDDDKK

T2: OrLa R2 RT (Oryzias latipes)
T2 chain: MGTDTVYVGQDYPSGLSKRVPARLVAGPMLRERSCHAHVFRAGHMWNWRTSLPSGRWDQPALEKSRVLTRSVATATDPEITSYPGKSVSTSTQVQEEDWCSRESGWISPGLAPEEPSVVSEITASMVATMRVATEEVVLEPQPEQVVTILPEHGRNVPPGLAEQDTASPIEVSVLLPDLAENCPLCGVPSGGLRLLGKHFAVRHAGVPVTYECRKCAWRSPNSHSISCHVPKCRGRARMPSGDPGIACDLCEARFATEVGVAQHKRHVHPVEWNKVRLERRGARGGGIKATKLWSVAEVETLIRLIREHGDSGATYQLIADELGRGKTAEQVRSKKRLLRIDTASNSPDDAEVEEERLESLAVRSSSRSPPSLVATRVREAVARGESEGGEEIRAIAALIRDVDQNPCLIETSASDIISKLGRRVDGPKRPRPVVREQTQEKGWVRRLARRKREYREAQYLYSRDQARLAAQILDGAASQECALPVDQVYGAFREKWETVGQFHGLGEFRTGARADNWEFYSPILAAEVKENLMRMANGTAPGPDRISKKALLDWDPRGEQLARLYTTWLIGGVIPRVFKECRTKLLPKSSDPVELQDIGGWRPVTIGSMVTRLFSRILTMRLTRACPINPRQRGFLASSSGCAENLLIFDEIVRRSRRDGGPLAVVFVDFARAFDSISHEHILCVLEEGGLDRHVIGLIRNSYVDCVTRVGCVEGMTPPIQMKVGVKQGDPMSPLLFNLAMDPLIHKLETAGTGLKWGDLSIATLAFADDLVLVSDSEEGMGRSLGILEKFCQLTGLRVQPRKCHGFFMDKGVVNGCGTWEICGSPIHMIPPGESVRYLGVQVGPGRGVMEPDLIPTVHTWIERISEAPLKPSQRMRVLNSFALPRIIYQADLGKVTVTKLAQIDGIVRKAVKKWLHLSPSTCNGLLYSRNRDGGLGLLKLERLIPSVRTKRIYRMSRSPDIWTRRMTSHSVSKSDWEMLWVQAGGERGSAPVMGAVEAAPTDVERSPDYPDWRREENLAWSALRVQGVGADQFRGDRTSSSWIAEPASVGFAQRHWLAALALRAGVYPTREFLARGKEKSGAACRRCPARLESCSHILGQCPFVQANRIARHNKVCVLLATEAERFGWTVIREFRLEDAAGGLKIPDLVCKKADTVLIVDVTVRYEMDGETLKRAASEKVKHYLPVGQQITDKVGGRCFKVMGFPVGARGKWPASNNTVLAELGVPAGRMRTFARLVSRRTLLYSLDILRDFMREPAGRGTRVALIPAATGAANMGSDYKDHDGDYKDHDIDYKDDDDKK

B1: O. latipes R2 3'UTR RNA (ssRNA)
RNA: UGAGGGGGACAGCUGGGAGUCUCGGCAUGAUUACAAAUCUUGCGCUGCACUCGGAUGUCGUCCCCGUGACGGACACAUUAAUCCGGAAAGCGAGUGGUGACUCGCCUCAAG
B2: D. simulans R2 3'UTR RNA (ssRNA)
RNA: UAGCUAAAACGUUUGGUUCAAAACAUUUGCUUGCUGUCUUGGCAUAACAUCAAUAAAGGCAUAAACAUCGCAAAAUAAUGGUUAUAUAUAAAUGGCUAUGAGGAUGGUUUUAGUACGUAGGCGUUGCGGAACUUCGGUUCAGAUAGAGCAAUGAAUCGUGCAUGCUAGGAAAACUGACCACACGCAGUGUUGGCAGCCCUAGUAUCUUUCGAUAGAUUUCCAUACCUCCGCGAUCAAAAAAAAAAAAAAAAAAAAAAA
B3: B. mori R2 3'UTR RNA (ssRNA)
RNA: UGAGCCUUGCACAGUAGUCCAGCGGUAAGGGUGUAGAUCAGGCCCGUCUGUUUCUCCCCCGGAGCUCGCUCCCUUGGCUUCCCUUAUAUAUUUUAACAUCAGAAACAGACAUUAAACAUCUACUGAUCCAAUUUCGCCGGCGUACGGCCACGAUCGGGAGGGUGGGAAUCUCGGGGGUCUUCCGAUCCUAAUCCAUGAUGAUUACGACCUGAGUCACUAAAGACGAUGGCAUGAUGAUCCGGCGAUGAAAA

How the values were obtained:
Settings in all cases: tags: N-terminal FLAG (GT linker), from HEK293T
BoMo R2 RT [1] = target: T1, BoMo R2 RT; experiment: pulldown; co-expressed in HEK293T, FLAG IP, non-cognate
Description: (§1) 9 populations of HEK293T cells were transfected with different combinations of plasmids comprised of one of the pcDNA3.1 backbone plasmids expressing RT protein ORFs modified from B. mori (SEQ ID NO. 35, D. simulans (SEQ ID NO. 32), and O. latipes (SEQ ID NO. 8), and an additional plasmid expressing the 3′ UTR RNA from B. mori (SEQ ID 163), D. simulans (SEQ ID NO. 164), or O. latipes (SEQ ID NO. 154) R2 elements (see FIG. 11 A). Each RT protein was co-expressed with each 3′ UTR RNA.
(§2) After allowing sufficient time for the RT protein plasmids to be transcribed and translated and to associate with the transcribed 3′ UTR RNAs, cells were lysed and any RT protein+RNA template complexes were purified by FLAG immunopurification (Sigma FLAG antibody resin). RNA present in each input cell lysate and RNA associated with each immunopurified sample was purified. Equivalent aliquots of each input RNA sample and each RT-bound RNA sample were affixed to Hybond N+membrane (Cytiva) in a grid of spots. Membranes containing spots for each type of 3′ UTR RNA were probed together for the presence of the 3′ UTR RNA, as detected by hybridization to complementary oligonucleotide probes that were ³²P 5′-end-radiolabeled using T4 polynucleotide kinase (NEB). […]

OrLa R2 RT = target: T2, OrLa R2 RT; experiment: pulldown; co-expressed in HEK293T, FLAG IP, cognate; more selective
Description: as §1, §2

BoMo R2 RT [2] = target: T1, BoMo R2 RT; experiment: pulldown; co-expressed in HEK293T, FLAG IP, cognate
Description: as §1, §2

Row | Binder | binding result (BoMo R2 RT [1]) | binding result (OrLa R2 RT) | binding result (BoMo R2 RT [2])
1 | B1 | binds | binds | –
2 | B2 | binds | – | –
3 | B3 | – | – | binds

— patent US20250049960, “Multicomponent systems for site-specific genome modifications” (The Regents of the University of California, published 2025)
